Measured values published in publication PMC3573117, “Identification of the SlmA Active Site Responsible for Blocking Bacterial Cytokinetic Ring Assembly over the Chromosome” (PLoS Genetics, 2013).

Target: T1, FtsZ(D212N) (UniProt P0A9A6 1-383, D212N)
T1 construct: FtsZ, tubulin-like cell division protein, GTPase-defective derivative D212N; Polymerised with 5 mM GTP in the assay; also called FtsZ(D212N) polymers; FtsZ(D212N) protofilaments
T1 sequence (looked up): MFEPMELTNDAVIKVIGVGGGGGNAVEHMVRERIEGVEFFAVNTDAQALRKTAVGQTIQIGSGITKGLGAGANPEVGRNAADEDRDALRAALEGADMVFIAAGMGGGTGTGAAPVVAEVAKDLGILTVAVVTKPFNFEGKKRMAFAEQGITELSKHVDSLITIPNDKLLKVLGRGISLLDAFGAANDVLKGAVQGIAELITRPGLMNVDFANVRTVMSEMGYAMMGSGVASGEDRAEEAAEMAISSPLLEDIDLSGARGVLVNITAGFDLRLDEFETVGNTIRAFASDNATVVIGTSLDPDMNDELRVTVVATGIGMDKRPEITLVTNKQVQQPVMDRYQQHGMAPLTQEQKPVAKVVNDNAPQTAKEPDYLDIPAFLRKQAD
Experiment: co-sedimentation; FtsZ(D212N) 5 µM with GTP 5 mM, SBS17 DNA 2.5 µM and SlmA derivative 5 µM, room temperature 15 min; 80,000 rpm, TLA100.2 rotor, 15 min; supernatant and pellet on SDS-PAGE, Coomassie
Details: both partners purified

B1: SlmA(WT) (natural protein, Escherichia coli, UniProt P0C093 1-198, looked up)
chain: MAEKQTAKRNRREEILQSLALMLESSDGSQRITTAKLAASVGVSEAALYRHFPSKTRMFDSLIEFIEDSLITRINLILKDEKDTTARLRLIVLLLLGFGERNPGLTRILTGHALMFEQDRLQGRINQLFERIEAQLRQVLREKRMREGEGYTTDETLLASQILAFCEGMLSRFVRSEFKYRPTDDFDARWPLIAAQLQ
notes: SlmA, nucleoid occlusion factor, TetR-like protein of Escherichia coli; Stood in the assay with SBS17 DNA (SlmA-SBS complex); Serves also as the parent for mutation effects seen with the BACTH fusions; also called wild-type SlmA
Does B1 bind?
Result: binds
